Results from publication PMC3557383.

Target: T1, RepA (ORF3) (Moraxella bovis ATCC 10900 (plasmid pMbo4.6)) (UniProt D0V0D3)
T1 sequence: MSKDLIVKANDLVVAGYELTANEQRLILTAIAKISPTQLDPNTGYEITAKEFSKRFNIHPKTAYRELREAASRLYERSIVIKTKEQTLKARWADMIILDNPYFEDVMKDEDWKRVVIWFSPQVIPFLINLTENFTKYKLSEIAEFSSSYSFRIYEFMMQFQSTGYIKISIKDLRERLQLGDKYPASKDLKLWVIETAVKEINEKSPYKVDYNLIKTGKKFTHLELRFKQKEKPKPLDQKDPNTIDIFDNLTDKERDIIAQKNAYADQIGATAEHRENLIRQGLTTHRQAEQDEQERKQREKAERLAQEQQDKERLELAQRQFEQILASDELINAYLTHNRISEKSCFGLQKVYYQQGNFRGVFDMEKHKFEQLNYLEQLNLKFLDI
Test: EMSA
Conditions: 10 mM Tris-HCl pH 7.5, 10 mM MgCl2, 100 mM NaCl, 0.2 mM DTT, 5% glycerol, 30 ul, 22 C 20 min; 6% PAGE 0.4x TBE at 4 C

| Sequence | binding |
| --- | --- |
| AAGAATTCGGGCGTGGTTTTGGGGATTGATTTTGTTTTGTCTTTTTAGCTAAAAAAACAAGAAAATTAACAAGAAAAAGAGCCAAAACCGAGTGCTTTTTCGGTTTTGGCGTTTTTTTATTTTTTTAATATATTTTTAATAGTTTTTAGACCCCCTGCAAAGCCTTATGTATCAAAGGTTTGCG (double strand) [orirep32] | no binding |
| CTAGGAGGGATTGACTACCAAATAGGAGGGATTGACTACTCAAATAGGAGGGATTGACTACTCAAATAGGAGGGATTGACTACCAAATAGGAGTATTTACAATAACTCTTTTTAGGTGTATAATTAATTACTCCTTTTTTGCTAATGAGACCTAAAAATGAGCAAAGATTTAATTGTAGGATCCAA (double strand) [orirep15] | binds |
